Patent publication US20240270846A1 (published 2024)
Numbering of substitutions follows the chain as printed. In names and notes the source's numbering stands.

B1: CE115HA000 N31G one-arm antibody (antibody, human IgG1, kappa, L234A L235A, N297A, name in Kabat numbering)
heavy: QVQLVESGGGVVQPGRSLRLSCAASGFTFSGAWMHWVRQAPGKGLEWVAQIKAKSNNYATYYAESVKGRFTISRDDSKNSLYLQMNSLKTEDTAVYYCRYVHYGAYYGVDAWGQGTTVTVSSASTKGPSVFPLAPSSKSTSGGTAALGCLVKDYFPEPVTVSWNSGALTSGVHTFPAVLQSSGLYSLSSVVTVPSSSLGTQTYICNVNHKPSNTKVDKKVEPKSCDKTHTCPPCPAPEAAGGPSVFLFPPKPKDTLMISRTPEVTCVVVDVSHEDPEVKFNWYVDGVEVHNAKTKPREEQYASTYRVVSVLTVLHQDWLNGKEYKCKVSNKALPAPIEKTISKAKGQPREPQVYTLPPSRCELTKNQVSLSCAVKGFYPSDIAVEWESNGQPENNYKTTPPVLDSDGSFFLVSKLTVDKSRWQQGNVFSCSVMHEALHNHYTQKSLSLSPDYKDDDDK
chain: EPKSSDKTHTCPPCPAPELLGGPSVFLFPPKPKDTLMISRTPEVTCVVVDVSHEDPEVKFNWYVDGVEVHNAKTKPREEQYNSTYRVVSVLTVLHQDWLNGKEYKCKVSNKALPAPIEKTISKAKGQPREPQVCTLPPSRDELTKNQVSLWCLVKGFYPSDIAVEWESNGQPENNYKTTPPVLDSDGSFFLYSKLTVDKSRWQQGNVFSCSVMHEALHNRYTQKSLSLSP
light: DIVMTQSPLSLPVTPGEPASISCRSSQSLVHSNRNTYLHWYQQKPGQAPRLLIYKVSNRFSGVPDRFSGSGSGTDFTLKISRVEAEDVGVYYCGQGTQVPYTFGQGTKLEIKRTVAAPSVFIFPPSDEQLKSGTASVVCLLNNFYPREAKVQWKVDNALQSGNSQESVTEQDSKDSTYSLSSTLTLSKADYEKHKVYACEVTHQGLSSPVTKSFNRGEC
notes: one-arm antibody
B2: CE115HA000 N31S one-arm antibody (antibody, human IgG1, kappa, L234A L235A, N297A, name in Kabat numbering)
heavy: B1 heavy with G31S
chain: B1 chain
light: B1 light
notes: one-arm antibody
B3: CE115HA000 N53H one-arm antibody (antibody, human IgG1, kappa, L234A L235A, N297A, name in Kabat numbering)
heavy: B1 heavy with G31N, N56H
chain: B1 chain
light: B1 light
notes: one-arm antibody
B4: CE115HA000 N53G one-arm antibody (antibody, human IgG1, kappa, L234A L235A, N297A, name in Kabat numbering)
heavy: B1 heavy with G31N, N56G
chain: B1 chain
light: B1 light
notes: one-arm antibody
B5: CE115HA000 Q50L one-arm antibody (antibody, human IgG1, kappa, L234A L235A, N297A, name in Kabat numbering)
heavy: B1 heavy with G31N, Q50L
chain: B1 chain
light: B1 light
notes: one-arm antibody
B6: CE115HA000 Q50K one-arm antibody (antibody, human IgG1, kappa, L234A L235A, N297A, name in Kabat numbering)
heavy: B1 heavy with G31N, Q50K
chain: B1 chain
light: B1 light
notes: one-arm antibody
B7: CE115HA000 N54D one-arm antibody (antibody, human IgG1, kappa, L234A L235A, N297A, name in Kabat numbering)
heavy: B1 heavy with G31N, N57D
chain: B1 chain
light: B1 light
notes: one-arm antibody
B8: CE115HA000 N31Q one-arm antibody (antibody, human IgG1, kappa, L234A L235A, N297A, name in Kabat numbering)
heavy: B1 heavy with G31Q
chain: B1 chain
light: B1 light
notes: one-arm antibody
B9: CE115HA000 N31R one-arm antibody (antibody, human IgG1, kappa, L234A L235A, N297A, name in Kabat numbering)
heavy: B1 heavy with G31R
chain: B1 chain
light: B1 light
notes: one-arm antibody
B10: CE115HA000 Q50I one-arm antibody (antibody, human IgG1, kappa, L234A L235A, N297A, name in Kabat numbering)
heavy: B1 heavy with G31N, Q50I
chain: B1 chain
light: B1 light
notes: one-arm antibody
B11: CE115HA000 N54K one-arm antibody (antibody, human IgG1, kappa, L234A L235A, N297A, name in Kabat numbering)
heavy: B1 heavy with G31N, N57K
chain: B1 chain
light: B1 light
notes: one-arm antibody
B12: CE115HA000 N53A one-arm antibody (antibody, human IgG1, kappa, L234A L235A, N297A, name in Kabat numbering)
heavy: B1 heavy with G31N, N56A
chain: B1 chain
light: B1 light
notes: one-arm antibody
B13: CE115HA000 N53K one-arm antibody (antibody, human IgG1, kappa, L234A L235A, N297A, name in Kabat numbering)
heavy: B1 heavy with G31N, N56K
chain: B1 chain
light: B1 light
notes: one-arm antibody
B14: CE115HA000 R16Q one-arm antibody (antibody, human IgG1, kappa, L234A L235A, N297A, name in Kabat numbering)
heavy: B1 heavy with R16Q, G31N
chain: B1 chain
light: B1 light
notes: one-arm antibody
B15: CE115HA000 N31I one-arm antibody (antibody, human IgG1, kappa, L234A L235A, N297A, name in Kabat numbering)
heavy: B1 heavy with G31I
chain: B1 chain
light: B1 light
notes: one-arm antibody
B16: CE115HA000 R19T one-arm antibody (antibody, human IgG1, kappa, L234A L235A, N297A, name in Kabat numbering)
heavy: B1 heavy with R19T, G31N
chain: B1 chain
light: B1 light
notes: one-arm antibody
B17: CE115HA000 Q50A one-arm antibody (antibody, human IgG1, kappa, L234A L235A, N297A, name in Kabat numbering)
heavy: B1 heavy with G31N, Q50A
chain: B1 chain
light: B1 light
notes: one-arm antibody
B18: CE115HA000 N54F one-arm antibody (antibody, human IgG1, kappa, L234A L235A, N297A, name in Kabat numbering)
heavy: B1 heavy with G31N, N57F
chain: B1 chain
light: B1 light
notes: one-arm antibody
B19: CE115HA000 N53I one-arm antibody (antibody, human IgG1, kappa, L234A L235A, N297A, name in Kabat numbering)
heavy: B1 heavy with G31N, N56I
chain: B1 chain
light: B1 light
notes: one-arm antibody
B20: CE115HA000 N31Y one-arm antibody (antibody, human IgG1, kappa, L234A L235A, N297A, name in Kabat numbering)
heavy: B1 heavy with G31Y
chain: B1 chain
light: B1 light
notes: one-arm antibody
B21: CE115HA000 S30D one-arm antibody (antibody, human IgG1, kappa, L234A L235A, N297A, name in Kabat numbering)
heavy: B1 heavy with S30D, G31N
chain: B1 chain
light: B1 light
notes: one-arm antibody
B22: CE115HA000 N53D one-arm antibody (antibody, human IgG1, kappa, L234A L235A, N297A, name in Kabat numbering)
heavy: B1 heavy with G31N, N56D
chain: B1 chain
light: B1 light
notes: one-arm antibody
B23: CE115HA000 N54G one-arm antibody (antibody, human IgG1, kappa, L234A L235A, N297A, name in Kabat numbering)
heavy: B1 heavy with G31N, N57G
chain: B1 chain
light: B1 light
notes: one-arm antibody
B24: CE115HA000 N31W one-arm antibody (antibody, human IgG1, kappa, L234A L235A, N297A, name in Kabat numbering)
heavy: B1 heavy with G31W
chain: B1 chain
light: B1 light
notes: one-arm antibody
B25: CE115HA000 Q50S one-arm antibody (antibody, human IgG1, kappa, L234A L235A, N297A, name in Kabat numbering)
heavy: B1 heavy with G31N, Q50S
chain: B1 chain
light: B1 light
notes: one-arm antibody
B26: CE115HA000 Q50Y one-arm antibody (antibody, human IgG1, kappa, L234A L235A, N297A, name in Kabat numbering)
heavy: B1 heavy with G31N, Q50Y
chain: B1 chain
light: B1 light
notes: one-arm antibody
B27: CE115HA000 N31H one-arm antibody (antibody, human IgG1, kappa, L234A L235A, N297A, name in Kabat numbering)
heavy: B1 heavy with G31H
chain: B1 chain
light: B1 light
notes: one-arm antibody
B28: CE115HA000 N31K one-arm antibody (antibody, human IgG1, kappa, L234A L235A, N297A, name in Kabat numbering)
heavy: B1 heavy with G31K
chain: B1 chain
light: B1 light
notes: one-arm antibody
B29: CE115HA000 S30G one-arm antibody (antibody, human IgG1, kappa, L234A L235A, N297A, name in Kabat numbering)
heavy: B1 heavy with S30G, G31N
chain: B1 chain
light: B1 light
notes: one-arm antibody
B30: CE115HA000 N54A one-arm antibody (antibody, human IgG1, kappa, L234A L235A, N297A, name in Kabat numbering)
heavy: B1 heavy with G31N, N57A
chain: B1 chain
light: B1 light
notes: one-arm antibody
B31: CE115HA000 Q50D one-arm antibody (antibody, human IgG1, kappa, L234A L235A, N297A, name in Kabat numbering)
heavy: B1 heavy with G31N, Q50D
chain: B1 chain
light: B1 light
notes: one-arm antibody
B32: CE115HA000 R16E one-arm antibody (antibody, human IgG1, kappa, L234A L235A, N297A, name in Kabat numbering)
heavy: B1 heavy with R16E, G31N
chain: B1 chain
light: B1 light
notes: one-arm antibody
B33: CE115HA000 Q50E one-arm antibody (antibody, human IgG1, kappa, L234A L235A, N297A, name in Kabat numbering)
heavy: B1 heavy with G31N, Q50E
chain: B1 chain
light: B1 light
notes: one-arm antibody

The binders below were run against T1, CD3 epsilon homodimer protein (UniProt P07766 23-126) (assay: SPR Biacore T200, antibody over immobilised CD3e homodimer;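 note: CD3 epsilon homodimer amine-coupled on a CM4 chip, run at 25 °C in HBS-EP+, Z = bound amount of each single-residue H chain variant over that of the parent antibody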).
T1 construct: also called CD3 (CD3 epsilon)
T1 sequence (P07766 23-126): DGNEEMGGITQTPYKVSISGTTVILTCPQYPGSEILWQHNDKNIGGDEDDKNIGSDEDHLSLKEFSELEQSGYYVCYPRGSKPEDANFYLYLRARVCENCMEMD
Description: An appropriate amount of CD3 epsilon homodimer protein was immobilized onto Sensor chip CM4 (GE Healthcare Japan Corp.) by the amine coupling method. Then, the antibody having an appropriate concentration was injected thereto as an analyte and allowed to interact with the CD3 epsilon homodimer protein on the sensor chip. Then, the sensor chip was regenerated by the injection of 10 mmol/L glycine-HCl (pH 1.5). The assay was conducted at 25 degrees C., and HBS-EP+(GE Healthcare Japan Corp.) was used as a running buffer. […] Each parameter was calculated using Biacore T200 Evaluation Software (GE Healthcare Japan Corp.).
Specifically, when the amount of the antibody comprising CE115HA000 bound was defined as X and the amount of the H chain one-amino acid altered form bound was defined as Y, a value of Z (ratio of amounts bound)=Y/X was used.

| ratio of amounts bound (Z=Y/X vs CE115HA000) | Binder |
| --- | --- |
| 0.39 | B1 |
| 0.81 | B2 |
| 0.76 | B3 |
| 0.5 | B4 |
| 0.23 | B5 |
| 0.33 | B6 |
| 0.62 | B7 |
| 0.49 | B8 |
| 1.14 | B9 |
| 0.4 | B10 |
| 1.2 | B11 |
| 0.7 | B12 |
| 0.78 | B13 |
| 0.9 | B14 |
| 0.81 | B15 |
| 0.8 | B16 |
| 0.24 | B17 |

| ratio of amounts bound (Z=Y/X vs CE115HA000) | Binder |
| --- | --- |
| 1.12 | B18 |
| 0.68 | B19 |
| 0.64 | B20 |
| 0.86 | B21 |
| 0.39 | B22 |
| 0.98 | B23 |
| 0.63 | B24 |
| 0.24 | B25 |
| 0.25 | B26 |
| 0.68 | B27 |
| 1.01 | B28 |
| 1.01 | B29 |
| 0.85 | B30 |
| 0.27 | B31 |
| 0.88 | B32 |
| 0.26 | B33 |
